Experiments:
[1] = SPR (Biacore T200) binding of humanized SMB0002 and its variants to adenosine; conditions: Biacore T200, 25° C.; read-out: KD of humanized SMB0002 toward adenosine
Experimental: (§1) Binding of humanized SMB0002 to adenosine and AMP was measured and analyzed by a method using Biacore T200 (GE Healthcare). Protein A (Invitrogen) immobilized in an appropriate amount onto a Sensor chip CM5 (GE Healthcare) by the amine coupling method was allowed to capture the antibody of interest, and the interaction with the antigen adenosine, AMP, ADP, or ATP was observed. The running buffer used was 50 mM Tris-HCl, 150 mM NaCl, 0.02% (w/v) Tween 20, pH 7.6, for adenosine and AMP, and 50 mM Tris-HCl, 150 mM NaCl, 0.02% (w/v) Tween 20, 2 mM MgCl2, pH 7.6, for ADP and ATP. All measurements were carried out at 25° C. The antigens were diluted with the running buffer.
(§2) Then, the running buffer was run at a flow rate of 30 μL/min for five minutes, and dissociation of the antigens from the antibody was observed. Next, 10 mM glycine-HCl, pH 1.5, was added at a flow rate of 30 μL/min for 30 seconds to regenerate the sensor chip. Kinetic parameters such as the association rate constant ka (1/Ms) and the dissociation rate constant kd (l/s) were calculated based on the sensorgrams obtained by the measurements. The dissociation constant KD (M) was calculated from these constants. Each parameter was calculated using Biacore T200 Evaluation Software (GE Healthcare).
(§3) As a result of the measurements, the affinity of each variant toward adenosine and AMP was calculated as KD value. […]

[2] = SPR (Biacore T200) binding of humanized SMB0002 to ADP; conditions: Biacore T200, 25° C., 2 mM MgCl2; read-out: KD of humanized SMB0002 toward ADP
Experimental: as §1, §2

[3] = SPR (Biacore T200) binding of humanized SMB0002 and its variants to AMP; conditions: Biacore T200, 25° C.; read-out: KD of humanized SMB0002 toward AMP
Experimental: as §1, §2, §3

[4] = SPR (Biacore T200) binding of humanized SMB0002 to ATP; conditions: Biacore T200, 25° C., 2 mM MgCl2; read-out: KD of humanized SMB0002 toward ATP
Experimental: as §1, §2

[5] = biological target: T1, human IL-6 receptor (hIL-6R) (Homo sapiens, UniProt P08887); assay: IgG ELISA for hIL-6R binding under small molecule conditions of Table 12; conditions: IgG 2.5 μg/mL
T1 sequence (P08887 20-357 limits assumed): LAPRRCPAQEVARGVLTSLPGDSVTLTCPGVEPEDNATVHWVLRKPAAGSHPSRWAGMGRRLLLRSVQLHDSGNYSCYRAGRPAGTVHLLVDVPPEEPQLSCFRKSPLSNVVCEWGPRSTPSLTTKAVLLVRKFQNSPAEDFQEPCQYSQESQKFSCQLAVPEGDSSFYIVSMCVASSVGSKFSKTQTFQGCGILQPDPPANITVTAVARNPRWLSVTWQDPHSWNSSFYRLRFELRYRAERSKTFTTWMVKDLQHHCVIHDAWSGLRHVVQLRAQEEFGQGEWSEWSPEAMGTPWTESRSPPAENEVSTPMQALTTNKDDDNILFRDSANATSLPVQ
Experimental: Three types of obtained antibodies 6RNMSC1-2_F02, 6RNMSC1-3_G02, and GC413 were subjected to ELISA under the nine conditions shown in Table 12. The antigen used was biotin-labeled hIL-6R.
First, a StreptaWell 96 microtiter plate (Roche) was coated with 100 μL of PBS containing biotin-labeled hIL-6R at room temperature for one hour or longer. […] 100 μL of each of the purified IgGs prepared at 2.5 μg/mL using Sample Buffer containing small molecules at the final concentrations shown in Table 12 were added to each well, and the plate was let still at room temperature for one hour to allow each IgG to bind to biotin-labeled hIL-6R present in each well. After washing with Wash Buffer containing small molecules at the final concentrations shown in Table 12, HRP-conjugated anti-human IgG antibody (BIOSOURCE) diluted with Sample Buffer containing the same small molecules was added to each well and the plate was incubated for one hour. After washing with Wash Buffer containing respective small molecules, the chromogenic reaction of TMB single solution (ZYMED) added in each well was terminated by adding sulfuric acid. Then, the color development was measured by absorbance at 450 nm.

[6] = biological target: T1, human IL-6 receptor (hIL-6R); assay: phage ELISA for hIL-6R binding in the presence/absence of small molecule cocktail (SC); conditions: absorbance at 450 nm
Experimental: From a single colony of E. coli obtained in (6-1), a phage-containing culture supernatant was collected according to a conventional method (Methods Mol. Biol. (2002) 178, 133-145). […] A StreptaWell 96 microtiter plate (Roche) was coated overnight with 100 μL of TBS containing biotin-labeled hIL-6R. […] After removing 2% skim milk/TBS, purified phages were added to each well of the plate, and the plate was left still at room temperature for one hour to allow antibody-presenting phages to bind to biotin-labeled hIL-6R present in each well in the presence/absence of SC. Each well was washed with TBST or SC/TBST, and HRP-conjugated anti-M13 antibody (Amersham Pharmacia Biotech) diluted with TBS or SC/TBS was added thereto, and the plate was incubated for one hour. After washing with TBST or SC/TBST, the chromogenic reaction of TMB single solution (ZYMED) added in each well was terminated by adding sulfuric acid. Then, the color development was measured by absorbance at 450 nm.

[7] = competitive phage ELISA with ATP; type: binding; conditions: ATP from equal amount up to 10000 times that of the antigen
Experimental: ATNLSA1-4_D12 and PF1 were each diluted with TBS and subjected to ELISA by the following procedure.
A StreptaWell 96 microtiter plate (Roche) was coated at room temperature for one hour with 100 μl of TBS containing biotin-labeled antigens (a mixture of 5′-adenosine-PEG-biotin and ATP-PEG-biotin). After the antigens were removed by washing each well of the plate with TBST, the wells were blocked with 250 μl of 2% skim milk/TBS for one hour or more. 2% skim milk/TBS was removed, and then the prepared, purified phages were added to each well. The plate was allowed to stand at room temperature for one hour to allow binding of the antibody-displaying phages to the antigens in each well. […] For the competition of the immobilized antigen with ATP, the plate was allowed to stand at room temperature for one hour. Then, after TBST wash, an HRP-conjugated anti-M13 antibody (Amersham Pharmacia Biotech) diluted with TBS was added to each well. The plate was incubated for one hour. Following TBST wash, the TMB single solution (ZYMED) was added to each well. The chromogenic reaction in the solution of each well was terminated by adding sulfuric acid. Then, the developed color was assessed by measuring absorbance at 450 nm.

B1: humanized SMB0002: heavy chain variable region SEQ ID NO: 85; light chain variable region SEQ ID NO: 86 (antibody, V domains shown)
VH: QVQLVQSGAEVKKPGASVKVSCKVSGIDLTNYAMGWVRQPPGKGLEWIGIIGADSSTWYPSWVKGRFTISKDTSKNQVVLTMTNMDPVDTATYYCARGRFVGYTNAFDPWGQGTLVTVSS
VL: DIQLTQSPSSLSASVGDRVTITCQSSQSVWNNNYLSWYQQKPGQPPKLLIYDASTLASGVPSRFSGSGSGTDFTLTINSLEAEDAATYYCHGSYANSGWYDNAFGGGTEVVVK
Work on B1 yielded a Kd [1] of 0.0075 µM, a Kd [2] of 79 µM and a Kd [3] of 35 µM. For the same molecule, the Kd [4] was 140 µM.

B2: 6RNMSC1-3_G02: antibody binding hIL-6R in the presence of ATP; heavy chain SEQ ID NO: 34, light chain SEQ ID NO: 35 (antibody, listed as Homo sapiens, V domains shown)
VH: EVQLVQSGGDLVKPGGSLRLSCAASGFTFSNYAMHWVRQAPGKGLEWVAVVSYDGSNKYYADSVKGRFTISRDNSKNTLYLQMNSLRAEDTAVYYCARLVPSSGYPGRFDPWGQGTLVTVSS
VL: NIQMTQSPSSLSASVGDRVTITCRASQSISSSLNWYQQIPGKAPKLLIYAASSLQSGVPSRFSGSGSGTDFTLTISSLQPEDFASYYCQQSYSAWTFGQGTKVEIK
For B2, the “absorbance under condition 9 (no small molecule) compared to condition 8 (cocktail of all small molecules)” value ([5]; absorbance at 450 nm) was “significantly lower”, the “small molecule in whose presence the antibody binds hIL-6R” value ([5]; conditions 1-9 of Table 12, absorbance at 450 nm) was “binds to the antigen hIL-6R in the presence of ATP” and the “binding activity to the antigen hIL-6R in the presence of a small molecule mixture” value [6] was “having binding activity”.

B3: PF1: hIL-6R-binding clone prepared as a negative control; heavy chain SEQ ID NO: 50, light chain SEQ ID NO: 51 (antibody, V domains shown)
VH: QVQLQESGPGLVKPSETLSLTCAVSGYSISDDHAWSWVRQPPGEGLEWIGYISYSGITNYNPSLKGRVTISRDTSKNQFSLKLSSVTAADTAAYYCARVLARITAMDYWGEGTLVTVSS
VL: DIQMTQSPSSLSASVGDSVTITCQASQDISSYLNWYQQKPGKAPELLIYYGSELHSGVPSRFSGSGSGTDFTFTISSLEAEDAATYYCGQGNRLPYTFGQGTKVEIE
For B3, the “binding to biotin-labeled antigen with ATP as competitor” value [7] was “not detected regardless of the ATP concentration”.
